Results from patent publication US12098206B2, “PDGF receptor antibody and use thereof” (Seoul National University R&DB Foundation, priority 2018, dated 2024).
“Also recorded” adds a separate entry of the source.

B1: PRb-CN16: anti-hPDGFR-β scFv clone (VH SEQ ID NO 39, VL SEQ ID NO 40), tested as scFv-Cκ-anti-cotinine scFv bispecific antibody (antibody, V domains shown)
VH: AVTLDESGGGLQTPGTALSLVCKASGFTFSSFNMAWVRQAPGKGLEFVGEISNTAGSTFYAPAVKGRATISRDNGQSTVRLQLNNLRAEDTAIYYCAKAAGTCYSHSCTGYIDAWGHGTEVIVSSTS
VL: LTQPSSVSANPGETVKITCSGSSSSYGWYQQKSPGSAPVTLIYENNQRPSNIPSRFSGSKSGSTGTLTITGVQAEDEAVYYCGNADRSNSAGTFGAGTTLTVL
modifications: VH of PRb-CN16; VL of PRb-CN16
B2: PRb-CN26: anti-hPDGFR-β scFv clone (VH SEQ ID NO 55, VL SEQ ID NO 56), tested as scFv-Cκ-anti-cotinine scFv bispecific antibody (antibody, V domains shown)
VH: AVTLDESGGGLQTPGGGLSLVCKASGFTFSDRGIHWVRQAPGKGLEWVAGIGNTGSYTAYAPAVKGRATISRDNGQSTVRLQLNNLRAEDTATYYCAKRGFMDAGGIDAWGHGTEVIVSSTS
VL: LTQPSSVSANPGETVKITCSGGGSYAGSYYYGWYQQKSPGSAPVTVIYDNTNRPSNIPSRFSGSLSGSTDTLTITGVQAEDEAVYFCGGYDGISDTGIFGAGTTLTVL
modifications: VH of PRb-CN26; VL of PRb-CN26
B3: PRb-CN32: anti-hPDGFR-β scFv clone (VH SEQ ID NO 47, VL SEQ ID NO 48), tested as scFv-Cκ-anti-cotinine scFv bispecific antibody (antibody, V domains shown)
VH: AVTLDESGGGLQTPRGTLSLVCKASGFTFSSFNMFWVRQAPGKGLEFVAGISTTGRYTGYGSAVQGRGTISRDNGQSTVRLQLNNLRAEDTGTYYCAKSAGSTYSYWDSDAGLIDAWGHGTEVIVSSTS
VL: LTQPSSVSANLGETVKITCSGGSNAGSYYYGWYQQKSPGSAPVTVIYSNNQRPSDIPSRFSGSTSGSTSTLTITGVQVDDEAVYFCGSGDSSSIAAFGAGTTLTVL
modifications: VH of PRb-CN32; VL of PRb-CN32

Key:
PDGFR-β = PDGFR-β (Homo sapiens, UniProt P09619); assay: Enzyme immunoassay on hPDGFR-β-Fc chimera coated plate; assay type: binding; set-up: made in house; conditions: 100 nM; FIG. 17
Sequence of PDGFR-β (P09619 33-531): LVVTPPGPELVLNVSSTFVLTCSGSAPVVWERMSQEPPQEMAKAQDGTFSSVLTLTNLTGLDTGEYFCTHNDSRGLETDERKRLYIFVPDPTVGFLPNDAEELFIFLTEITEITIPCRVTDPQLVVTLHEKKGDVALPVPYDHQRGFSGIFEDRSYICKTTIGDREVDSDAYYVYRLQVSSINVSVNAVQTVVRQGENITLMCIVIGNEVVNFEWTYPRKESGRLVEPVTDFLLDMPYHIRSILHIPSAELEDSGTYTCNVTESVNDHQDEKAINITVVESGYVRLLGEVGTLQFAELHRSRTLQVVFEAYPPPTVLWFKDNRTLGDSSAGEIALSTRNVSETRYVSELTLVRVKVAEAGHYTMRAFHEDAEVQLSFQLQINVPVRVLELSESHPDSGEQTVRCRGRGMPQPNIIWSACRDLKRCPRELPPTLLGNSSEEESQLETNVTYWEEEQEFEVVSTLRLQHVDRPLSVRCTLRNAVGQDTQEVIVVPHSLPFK
Description: 100 ng of hPDGFR-β-Fc chimera in the coating buffer or extracellular region of TNF-α receptor-human Fc fusion protein was coated on a microtiter plate at 4° C. O/N. Each well was blocked with 150 μL of 3% (w/v) BSA (bovine serum albumin) in PBS as a blocking agent at 37° C. for 1 hour. After treatment with various concentrations of bispecific antibodies of scFv-Cκ-scFv fusion protein (0.01 nM-1 μM), the analysis was performed in the same protocol of the concentration-dependent binding ability of anti-mPDGFRR-β scFv-Cκ-scFv fusion protein.
(§1) 100 ng of hPDGFR-β, mPDGFR-β, rhesus PDGFR-β (90215-C02H, Sino Biological Inc. Beijing, China), cynomolgus monkey PDGFR-β, Sus scrofa PDGFR-β-Fc chimera or TNF-α receptor extracellular domain-human Fc fusion protein was coated with 4° C. temperature O/N. After blocking the wells, sequential culture of the anti-hPDGFR-β scFv-Cκ-scFv fusion protein and the HRP conjugated anti-human Cκ antibody was followed in the same manner as in Example 3.

Sus scrofa PDGFR-β = assay: Cross-species enzyme immunoassay, Sus scrofa PDGFR-β; assay type: binding; conditions: 100 nM; FIG. 17
Sequence of Sus scrofa PDGFR-β (as listed by the source): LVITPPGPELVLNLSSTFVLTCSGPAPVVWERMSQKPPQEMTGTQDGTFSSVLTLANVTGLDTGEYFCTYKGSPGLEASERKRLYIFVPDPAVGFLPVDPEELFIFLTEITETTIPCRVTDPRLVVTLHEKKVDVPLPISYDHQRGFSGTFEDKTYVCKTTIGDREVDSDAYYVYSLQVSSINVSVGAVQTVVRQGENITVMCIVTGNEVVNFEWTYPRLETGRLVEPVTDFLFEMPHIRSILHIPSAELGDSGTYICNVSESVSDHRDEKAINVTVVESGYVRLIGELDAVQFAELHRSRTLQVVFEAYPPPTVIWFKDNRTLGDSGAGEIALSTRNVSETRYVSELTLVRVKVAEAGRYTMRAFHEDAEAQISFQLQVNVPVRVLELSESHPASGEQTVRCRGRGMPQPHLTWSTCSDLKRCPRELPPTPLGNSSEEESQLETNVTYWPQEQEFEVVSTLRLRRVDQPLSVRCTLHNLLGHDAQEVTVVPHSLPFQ
Description: as §1
(§2) FIG. 17 is a graph showing an experiment of the cross-species reaction of the bispecific antibody against the anti-hPDGFR-β antibody according to the present invention. On the microtiter plates coated with hPDGFR-β, mPDGFR-β, Rhesus PDGFR-β, Cynomolgus monkey PDGFR-β, Sus scrofa PDGFR-β and control Fc coated, the bispecific antibody containing anti-hPDGFR-β antibody according to the present invention (100 nM) was reacted and the amount of bound bispecific antibody was measured using HRP conjugated anti-human Cκ antibody and TMB.

hPDGFR-β and cotinine = target: T1, hPDGFR-β and cotinine (Homo sapiens, UniProt P09619); assay: Enzyme immunoassay, simultaneous binding to cotinine and hPDGFR-β; conditions: cotinine-BSA coated wells, then hPDGFR-β-Fc chimera; FIG. 12d
T1 construct: made in house
T1 sequence (P09619 33-531): as the sequence (P09619 33-531) above
Description: In order to determine of the simultaneous binding ability of cotinine and hPDGFR-β, an anti-hPDGFR-β x cotinine scFv-Cκ-scFv fusion protein was cultured in wells coated with cotinine-BSA. Washing was performed for each process, and hPDGFR-β-Fc chimeric protein and HRP-anti human Fc antibody were incubated in order. The three kinds of bispecific antibody scFv-Cκ-scFv fusion proteins simultaneously bound to hPDGFR-β and cotinine (FIG. 12d).

[1] = system: Cynomolgus monkey PDGFR-β; assay: Cross-species enzyme immunoassay, Cynomolgus monkey PDGFR-β; assay type: binding; conditions: 100 nM; FIG. 17
Sequence of Cynomolgus monkey PDGFR-β (as listed by the source): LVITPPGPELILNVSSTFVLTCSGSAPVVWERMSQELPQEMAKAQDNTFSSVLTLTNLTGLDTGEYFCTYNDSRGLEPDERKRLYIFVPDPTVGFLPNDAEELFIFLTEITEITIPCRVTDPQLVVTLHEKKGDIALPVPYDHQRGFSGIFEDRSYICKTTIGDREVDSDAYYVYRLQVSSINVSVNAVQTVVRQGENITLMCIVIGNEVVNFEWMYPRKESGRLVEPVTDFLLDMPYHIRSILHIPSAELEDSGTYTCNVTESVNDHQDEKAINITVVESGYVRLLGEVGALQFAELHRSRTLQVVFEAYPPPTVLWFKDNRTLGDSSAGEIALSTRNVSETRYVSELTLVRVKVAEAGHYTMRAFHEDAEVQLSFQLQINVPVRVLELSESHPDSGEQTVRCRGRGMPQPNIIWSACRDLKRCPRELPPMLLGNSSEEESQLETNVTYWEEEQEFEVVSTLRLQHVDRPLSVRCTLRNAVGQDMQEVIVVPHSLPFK
Description: as §1, §2

human pericyte cells [2] = assay: Anti-proliferative (cytotoxicity) test in human pericyte cells, cellular ATP; assay type: cell-based; conditions: with or without hPDGF-BB; FIGS. 14a and 14b
Description: Human pericyte cells were added to 50 μL of DMEM supplemented with 10% FBS and 1% penicillin/streptomycin, placed in a 96-well plate (CLS3595, Corning) and incubated overnight in 5% CO2 at 37° C. incubator. In each well containing 50 μL of cells, 50 μL of 50 anti-hPDGFR-β x cotinine scFv-Cκ-scFv fusion protein (25.6 pM-2 μM) complexed with cot-duo was added and incubated for 72 hours in 5% CO2 and 37° C. incubator.
To evaluate the effect of hPDGF-BB on the toxicity of the complex of the bispecific antibody of scFv-Cκ-scFv and cot-duo, hPDGF-BB (2 nM) was added together with 50 μL of the bispecific antibody scFv-Cκ-scFv and cot-duo complex. The mixed complexes were added to 50 μL of cell-containing solution. The bispecific antibody anti-mCD154 x cotinine scFv-Cκ-scFv was used as a control. Other experimental methods were carried out in the same manner as in the protocol of the anti-mPDGFR-β x cotinine scFv-Cκ-scFv fusion protein in Example 7.
In order to evaluate the toxicity of the anti-hPDGFR-β x cotinine scFv-Cκ-scFv fusion protein and cot-duo complexes, the complex was treated in human pericyte cells with or without hPDGF-BB, and the cells were […] to measure the relative viability. The toxicity of the bispecific antibody of anti-hPDGFR-β x cotinine scFv-Cκ-scFv fusion protein and cot-duo complex was shown by IC50 (Table 8).

human pericyte cells [3] = assay: Internalization analysis by confocal microscopy in human pericyte cells; assay type: cell-based
Description: Human pericyte cells were treated with the diluted bispecific antibody scFv-Cκ-scFv (10 μg/mL) in pericyte growth medium supplemented with 10% FBS, and internalized at 37° C. for 30 minutes. The analysis was performed in the same manner according to the protocol of the confocal microscope of the anti-mPDGFR-β x cotinine scFv-Cκ-scFv fusion protein of Example 4. After the addition of hPDGF-BB (50 ng/mL) to the bispecific antibody scFv-Cκ-scFv fusion protein, the confocal microscopy experiments were performed according to the same protocol.
The internalization of the bispecific antibody scFv-Cκ-scFv fusion protein was visualized. After treatment of human pericyte cells with the fusion protein, antibodies bound to the cell surface were removed. After cell fixation, the fusion protein was stained with FITC-anti human Cκ antibody (green). To visualize early endosomes, the cells were stained with anti-Rab5 antibody and Alexa Fluor 546-goat anti-rabbit antibody IgG (red). […] DNA was stained with DAPI (blue)(Scale bar, 10 μm). FIG. 13d was repeated with hPDGF-BB.
To measure the cellular internalization of the bispecific antibody of scFv-Cκ-scFv, anti-hPDGFR-β x cotinine scFv-Cκ-scFv fusion protein was incubated in human pericyte cells, and then treated with FITC-anti-human Cκ antibody and endosome-specific antibody. It was imaged using a confocal microscope. […] When the images were merged, the present inventors confirmed that the fluorescence of the two antibody clones and the endosome-specific antibody were co-localized. […] Internalization of the antibody is very important for delivery of drug into the target cell. […] Therefore, it is useful for intracellular delivery of drug to patients with diseases.

Rhesus PDGFR-β = target: T2, Rhesus PDGFR-β (Macaca mulatta, UniProt I0FLK2); assay: Cross-species enzyme immunoassay, Rhesus PDGFR-β; assay type: binding; conditions: 100 nM; FIG. 17
T2 construct: Fc; purchased Sino Biological Inc. 90215-C02H
Description: as §1, §2

[4] = 10 μg/mL, 37° C., 30 minutes, absence of hPDGF-BB, FIG. 13c
[5] = treated with hPDGF-BB (50 ng/mL), FIG. 13d

| Molecule | cross-species binding, hPDGFR-β (PDGFR-β) | cross-species binding, Sus scrofa PDGFR-β (Sus scrofa PDGFR-β) | simultaneous binding to hPDGFR-β and cotinine (hPDGFR-β and cotinine) | cross-species binding, Cynomolgus monkey PDGFR-β [1] | toxicity of complex with cot-duo in human pericyte cells, comparison (human pericyte cells [2]) | cellular internalization (human pericyte cells [3]; [4]) | cellular internalization (human pericyte cells [3]; [5]) | cross-species binding, Rhesus PDGFR-β (Rhesus PDGFR-β) |
| --- | --- | --- | --- | --- | --- | --- | --- | --- |
| B1 | confirmed to bind | confirmed to bind | capable of simultaneously binding hPDGFR-β and cotinine | confirmed to bind | higher toxicity than control anti-mCD154 x cotinine scFv-Cκ-scFv | Intracellular fluorescence was detected | co-localized with endosome-specific antibody | confirmed to bind |
| B2 | confirmed to bind | confirmed to bind | capable of simultaneously binding hPDGFR-β and cotinine | confirmed to bind | higher toxicity than control anti-mCD154 x cotinine scFv-Cκ-scFv; also recorded: highest cytotoxicity | not internalized | co-localized with endosome-specific antibody; also recorded: internalized in a large amount within 30 minutes | confirmed to bind |
| B3 | confirmed to bind | confirmed to bind | capable of simultaneously binding hPDGFR-β and cotinine | confirmed to bind | higher toxicity than control anti-mCD154 x cotinine scFv-Cκ-scFv; also recorded: highest cytotoxicity | Intracellular fluorescence was detected; also recorded: internalizes most effectively | co-localized with endosome-specific antibody | confirmed to bind |
